Source: patent US20120165265A1, “Calcium Signaling Modulators Involving STIM and ORAI Proteins” (priority 2009, published 2012)
One block for each substance: values may come before it.

What was measured:
endogenous CRAC channels = assay: NFAT-luciferase assay in HEK 293T (NFAT-Luc) cells; assay type: cell-based; details: HEK 293T NFAT-luc cells transfected with STIM1 construct; PMA (1 μM) alone
Experimental: NFAT-luciferase Assays. HEK 293T cells were co-transfected with the indicated constructs and an NFAT reporter gene (firefly luciferase gene C-terminal to 4×-NFAT site from the IL-2 gene). Cotransfection with the Renilla luciferase (pRLTK) gene driven by the TK promoter was used to control for cell number and transfection efficiency. After 12-18 h, cells were treated with a control DMSO solution (mock), PMA (1 μM), or PMA plus TG (1 μM) for 8 h. Assays were performed using the Dual Luciferase Reporter assay system (Promega). For each condition, luciferase activity was measured with 4 samples taken from duplicate wells using a 96-well automated luminometer (Turner Biosystems). Results are represented as the ratio of firefly to Renilla luciferase activity.
Identifying a Minimal Cytosolic Region of STIM1 that Opens the CRAC Channel. To identify the CRAC-activating domain of STIM1, we first tested a series of soluble cytosolic STIM1 fragments for their ability to activate an NFAT-dependent luciferase reporter gene (NFAT-luc). A series of constructs were generated by progressive truncation of the full-length cytosolic region of STIM1 (FIG. 2A; STIM1234-685; CT-STIM1) and were transiently expressed in a HEK 293T cell line containing NFAT-luc. […]

Orai1 [1] = biological target: T1, Orai1 (Homo sapiens, UniProt Q96D31); assay: Co-immunoprecipitation with Orai1 in HEK 293T cells; assay type: binding; design: expressed in transfected cells; host or cells: HEK 293; details: 150 mM salt, 1% Triton X-100
T1 sequence (Q96D31 whole entry): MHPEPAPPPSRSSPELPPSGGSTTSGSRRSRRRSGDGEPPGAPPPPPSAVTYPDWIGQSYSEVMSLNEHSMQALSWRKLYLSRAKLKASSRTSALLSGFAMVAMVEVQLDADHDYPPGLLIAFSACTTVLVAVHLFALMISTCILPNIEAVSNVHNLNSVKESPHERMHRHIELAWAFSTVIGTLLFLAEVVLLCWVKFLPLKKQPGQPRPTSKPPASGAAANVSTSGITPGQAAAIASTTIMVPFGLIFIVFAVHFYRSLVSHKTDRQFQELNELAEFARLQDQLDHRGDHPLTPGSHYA
Experimental: Immunoprecipitation and Immunoblot Analysis. Transfected HEK 293T cells (12-24 h) were washed with PBS and lysed in 50 mM Tris-HCl pH 7.5, 150 mM NaCl, 1% Triton X-100, and protease inhibitors. Lysates were spun at 12,000 rpm for 10 min, and the supernatant was incubated with anti-Flag M2 agarose beads (Sigma), or anti-myc or -HA antibody followed by IgG agarose beads (Pierce). Lysates and immunoprecipitates were subjected to SDS-PAGE, probed with HRP-conjugated secondary antibody and detected by enhanced chemiluminescence (Pierce).
CAD Associates with Orai1 in vivo and in vitro. Because cytosolic CAD is a potent activator of Orai1 channels and is not associated with the ER, we hypothesized that CAD binds to Orai1. To test this idea, we first expressed YFP-CAD with or without myc-Orai1 in HEK 293 cells and examined its intracellular localization. […] To provide additional evidence that CAD and Orai1 are part of the same protein complex we expressed Flag-tagged CAD and GFP-tagged Orai1 in HEK 293T cells and immunoprecipitated CAD with anti-Flag antibodies. GFP-myc-Orai1 was detected in the immunoprecipitates from cells co-expressing CAD and Orai1 but not from cells expressing CAD or Orai1 alone (FIG. 3B).
Thus, CAD and Orai1 form a protein complex in mammalian cells.

CRAC channels = biological target: T2, CRAC channels (Homo sapiens, UniProt Q96D31); assay: [Ca2+]i imaging in HEK 293 cells expressing STIM1 fragment and Orai1; assay type: cell-based
T2 construct: expressed in transfected cells; host or cells: HEK 293
T2 sequence (Q96D31 whole entry, the tested form may be a part): as the sequence (Q96D31 whole entry) above
Experimental: Ca^2+ Imaging. For FIG. 2, cells were loaded at 37° C. in DMEM with 1 μM fura-2/AM for 30 min. Ratiometric Ca2+ imaging was performed at 340 and 380 nm in 2 mM Ca2+ Ringer's solution with a Nikon Eclipse 2000-U inverted microscope equipped with a fluorescent arc lamp, excitation filter wheel, and a Hamamatsu Orca CCD camera. Images were collected using Openlab (Improvision) and analyzed using Igor Pro.
To determine if CAD activates store operated Ca^2+ influx in cells, we measured [Ca^2+]i in HEK 293 cells expressing CAD and Orai1.

EE-Orai1-His8 = biological target: T3, EE-Orai1-His8 (Homo sapiens, UniProt Q96D31); assay: GST pull-down assay with purified proteins; assay type: binding; details: in vitro
T3 construct: made in house; host or cells: Hi5 insect cells (baculovirus, pVL1393)
T3 sequence (Q96D31 whole entry): as above
Experimental: GST Pull-down Assays. For GST pull-down assays, either GST-CAD (0.16 μM) or GST (0.15 μM) was incubated with EE-Orai1-His8 (0.1 μM) for 1 h in buffer containing (in mM): 20 Tris-HCl (pH 8.0), 150 NaCl, 20 imidazole, and 1 DTT with protease inhibitors. After addition of glutathione sepharose the beads were centrifuged, washed with the above buffer, and the precipitated proteins were eluted with boiling SDS and analyzed by SDS-PAGE and Western blotting.
CAD Binds Directly to Orai1. To test for direct binding between the CAD and Orai1 we generated a GST-tagged CAD peptide in E. coli and an Orai1 protein containing C-terminal octa-histidine and N-terminal EEYMPME (“EE”) tags in insect Hi5 cells. We incubated purified GST-CAD or GST alone with purified EE-Orai1-His8 and used glutathione beads to precipitate the complexes.

Orai1 [2] = biological target: T1, Orai1; assay: Store-operated Ca2+ entry by STIM1 variants, single cell Ca2+ imaging; assay type: cell-based; design: expressed in transfected cells; host or cells: HEK 293; details: coexpressed with eGFP-Orai1, TG
Experimental: For FIG. 7, cells were loaded as above with 2 μM fura-2/AM for 25 min. Ratiometric Ca2+ imaging was performed with 350 and 380 nm excitation in 2 mM Ca2+ Ringer's solution on an Axiovert 35 inverted microscope using a VideoProbe imaging system as described (Bautista et al., 2002). mCherry-positive cells were identified using a 540±12 nm excitation and a 580LP emission filter (Chroma).
(§1) The Role of CAD in Orai1 Binding and Activation by STIM1. A key question is whether CAD is responsible for the clustering and activation of CRAC channels by full-length STIM1 following store depletion. To address this, we measured the ability of mCherry-tagged STIM1 variants containing CAD mutations to co-cluster with eGFP-Orai1 and activate Ca^2+ entry in response to TG (FIG. 7). STIM1-Orai1 colocalization was quantified as the fraction of total STIM1 and Orai1 fluorescence that was recruited to regions of high fluorescence covariance (FIG. 13), while Ca^2+ influx was measured with single cell Ca^2+ imaging. For each set of experiments we measured mCherry and GFP fluorescence to confirm that differences in the activity of the various STIM1 constructs were not due to differences in expression level (FIG. 14).

Orai1 [3] = biological target: T1, Orai1; assay: Puncta formation of STIM1 variants by confocal microscopy in HEK 293 cells; assay type: cell-based; design: expressed in transfected cells; host or cells: HEK 293; details: coexpressed with eGFP-Orai1, TG
Experimental: (§2) Confocal Microscopy. 6 h after transfection, HEK 293 cells were plated onto sterilized coverslips coated with poly-D-lysine and maintained in complete DMEM for an additional 12-18 h before imaging in Ringer's solution containing (in mM): 155 NaCl, 4.5 KCl, 2 CaCl2, 1 MgCl2, 10 D-glucose, and 5 Na-Hepes, pH 7.4. To deplete stores, cells were treated with 1 μM TG in Ca2+-free Ringer's (prepared by substituting 2 mM MgCl2 and 1 mM EGTA for CaCl2) for 10 min. eGFP and mCherry were excited simultaneously at 488 and 594 nm, respectively, on a Leica SP2 AOBS inverted confocal microscope equipped with a PL APO 100×/NA 1.4 oil immersion objective. Fluorescence emissions were collected at 615-840 nm (mCherry) and 510-570 nm (eGFP). All experiments were performed at 22-25° C.
Quantitation of STIM1 and Orai1 Recruitment into Puncta. Colocalization of eGFP-Orai1 and mCh-STIM1 variants was analyzed from background-corrected confocal image pairs acquired before and after store depletion. Puncta have two defining characteristics: (1) because they are sites of accumulation, STIM1 and Orai1 fluorescence intensities in puncta are greater than the respective mean intensities measured across the entire cell, and (2) because STIM1 and Orai1 co-localize in puncta, their fluorescence covariance is high. For each STIM1/Orai1 image pair, we computed the covariance of each pixel as (Si−s) (Oi−o), where Si and Oi are the STIM1 and Orai1 fluorescence of pixel i, and s and o are the mean STIM1 and Orai1 fluorescence of the entire cell. A threshold criterion for puncta was set using the pre-depletion image pair. The mean and s.d. of the covariance values were calculated from pixels for which both Si>s and Oi>o, and a covariance threshold was set equal to the mean+2×s.d. of this pre-depletion condition. Binary masks were applied to the pre- and post-depletion image pairs to isolate pixels for which Si>s and Oi>o and whose covariance exceeds the pre-depletion threshold. […] Integrated STIM1 or Orai1 puncta intensity was calculated from the masked images and expressed as a fraction of the total fluorescence intensity in the unmasked image. […]
as §1, with “A key question is whether CAD is responsible for the clustering and activation of CRAC channels by full-length STIM1 following store depletion.” left out

Orai1 [4] = biological target: T1, Orai1; assay: Whole-cell patch clamp recording of ICRAC in transfected HEK 293 cells; assay type: cell-based; design: expressed in transfected cells; host or cells: HEK 293
Experimental: Electrophysiology. HEK 293 cells were transfected 8-24 h prior to electrophysiology experiments with STIM1- and Orai1-derived constructs in a 1:1 mass ratio using Lipofectamine 2000. […] ICRAC in cells cultured without LaCl3 was similar to that in cells cultured with LaCl3, but most cells without LaCl3 died soon after break-in.
Currents were recorded using standard whole-cell patch clamp techniques (Prakriya and Lewis, 2001). Pipettes of resistance 2-5 MΩ were filled with an internal solution containing (in mM) 150 Cs aspartate, 8 MgCl2, 10 EGTA, and 10 HEPES (pH 7.2 with CsOH). Currents were sampled at 5 kHz and filtered at 2 kHz, and all voltages were corrected for the junction potential of the pipette solution relative to Ringer's in the bath (−13 mV).
Patch-clamp Experiments. Pipette-membrane seals were formed in 2 mM Ca^2+ Ringer's solution. After break-in to the whole-cell configuration, voltage stimuli consisting of a 100-ms step to −100 mV followed by a 100-ms ramp from −100 to +100 mV were delivered every 5 s from the holding potential of +30 mV. After the currents reached a steady level (˜300 s for wild-type STIM1), the external solution was changed via a multibarrel local perfusion pipette to a high-Ca^2+ Ringer's containing (in mM) 130 NaCl, 4.5 KCl, 20 CaCl2, 1 MgCl2, 10 D-glucose, and 5 HEPES (pH 7.4 with NaOH). All data were leak-corrected using the current elicited in 20 mM Ca^2+ Ringer's+10 μM LaCl3 at the end of the each experiment. LaCl3 and 2-APB were added directly to parent solutions on the day of the experiment from 10 mM and 100 mM stocks in H2O and DMSO, respectively.
As a definitive test for CRAC channel activation, we conducted whole-cell patch clamp recordings from HEK 293 cells transiently transfected with myc-Orai1 and either YFP-STIM1 or YFP-CAD. In cells expressing full length YFP-STIM1, ICRAC appeared over several minutes following break-in, consistent with the typical slow activation seen in response to passive store depletion (FIG. 2D). […] In contrast, inward current was present from the moment of break-in in cells expressing YFP-CAD (FIG. 2E). This current was identified as ICRAC based on its dependence on extracellular Ca^2+, inward rectification, sequential enhancement and inhibition by 2-APB, and inhibition by La^3+ (FIG. 2E and FIG. 10 C, D). ICRAC was not observed at break-in in HEK 293 cells transfected with YFP or YFP-CAD in the absence of Orai1 (FIG. 2F), consistent with the low level of endogenous STIM1 and Orai1 in these cells. […] Inactivation was restored by addition of STIM1 residues carboxy-terminal to CAD.

Orai1 [5] = assay: Puncta formation of STIM1 variants by confocal microscopy in HEK 293 cells; assay type: cell-based; details: expressed alone in HEK 293 cells
Experimental: as §2
Quantitation of STIM1 and Orai1 Recruitment into Puncta. Colocalization of eGFP-Orai1 and mCh-STIM1 variants was analyzed from background-corrected confocal image pairs acquired before and after store depletion. Puncta have two defining characteristics: (1) because they are sites of accumulation, STIM1 and Orai1 fluorescence intensities in puncta are greater than the respective mean intensities measured across the entire cell, and (2) because STIM1 and Orai1 co-localize in puncta, their fluorescence covariance is high. […]

Orai1 [6] = biological target: T1, Orai1; assay: Intracellular localization of YFP-CAD in HEK 293 cells; assay type: cell-based; design: expressed in transfected cells; host or cells: HEK 293; details: with myc-Orai1
Experimental: as §2
CAD Associates with Orai1 in vivo and in vitro. Because cytosolic CAD is a potent activator of Orai1 channels and is not associated with the ER, we hypothesized that CAD binds to Orai1. To test this idea, we first expressed YFP-CAD with or without myc-Orai1 in HEK 293 cells and examined its intracellular localization. […] GFP-myc-Orai1 was detected in the immunoprecipitates from cells co-expressing CAD and Orai1 but not from cells expressing CAD or Orai1 alone (FIG. 3B).

Substance: GST-CAD: GST-tagged CAD peptide generated in E. coli
co-precipitation of purified Orai1 with glutathione beads (EE-Orai1-His8): co-precipitated Orai1

Substance: STIM1 C437G: STIM1 C437G mutant
Ca2+ entry (SOCE) after store depletion (Orai1 [2]): only marginally activated SOCE
puncta formation with Orai1 after store depletion (Orai1 [3]): formed pronounced puncta with Orai1

Substance: STIM11-440: STIM1 1-448 with the final 8 aa deleted
Ca2+ entry (SOCE) after store depletion (Orai1 [2]): failed to activate SOCE
puncta formation with Orai1 after store depletion (Orai1 [3]): retained the ability to form puncta and cluster Orai1

Substance: YFP-CAD: YFP-tagged CAD expressed in HEK 293 cells
constitutive ICRAC (Orai1 [4]; HEK 293 cells cotransfected with construct and myc-Orai1, from break-in): constitutively active
localization on coexpression of Orai1 (Orai1 [6]): dramatic recruitment of YFP-CAD to the plasma membrane

Further lines, with some results ahead:

co-immunoprecipitation with Orai1 (Orai1 [1]): unable to detect any interaction
resting [Ca2+]i (CRAC channels; HEK 293T cells coexpressing construct and Orai1): did so
[Ca2+]i / CRAC channel activation (CRAC channels; HEK 293 cells coexpressing construct and Orai1, no store depletion): did not elevate resting [Ca^2+]i
Substance: CT-STIM1: full-length cytosolic region of STIM1 (aa 234-685) [reference compound]
activation of NFAT-dependent luciferase reporter gene (NFAT-luc) (endogenous CRAC channels): did not activate

ICRAC after store depletion (Orai1 [4]; HEK 293 cells coexpressing STIM1 variant and Orai1): activated ICRAC
puncta formation with Orai1 after store depletion (Orai1 [3]): colocalized in puncta
Substance: STIM1-DK: STIM1 lacking the polybasic C-terminal domain (aa 672-685)
puncta formation after store depletion (Orai1 [5]): failed to form puncta

Ca2+ entry (SOCE) after store depletion (Orai1 [2]): activated Ca^2+ entry
puncta formation with Orai1 after store depletion (Orai1 [3]): formed puncta with Orai1
Substance: STIM11-448: STIM1 truncated from the C-terminus to the end of the CAD
